Reference: paper PMC9482650, “Quantitative fragmentomics allow affinity mapping of interactomes” (Nature Communications, 2022)

T1: ARHGEF11, O15085
T1 sequence (O15085 42-136, limits assumed, looked up): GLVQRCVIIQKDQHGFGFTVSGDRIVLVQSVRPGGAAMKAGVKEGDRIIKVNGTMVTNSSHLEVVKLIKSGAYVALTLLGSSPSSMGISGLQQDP

T2: APBA2_1, Q99767
T2 sequence (Q99767 563-664, limits assumed, looked up): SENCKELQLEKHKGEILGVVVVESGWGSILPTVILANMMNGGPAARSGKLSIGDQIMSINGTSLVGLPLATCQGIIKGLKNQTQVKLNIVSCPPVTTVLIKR

T3: NHERF3_4, Q5T2W1
T3 sequence (Q5T2W1 373-468, limits assumed, looked up): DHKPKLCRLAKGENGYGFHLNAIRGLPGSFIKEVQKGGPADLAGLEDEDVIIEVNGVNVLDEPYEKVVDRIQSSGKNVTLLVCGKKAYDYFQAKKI

T4: SNTB1, Q13884
T4 sequence (Q13884 107-205, limits assumed, looked up): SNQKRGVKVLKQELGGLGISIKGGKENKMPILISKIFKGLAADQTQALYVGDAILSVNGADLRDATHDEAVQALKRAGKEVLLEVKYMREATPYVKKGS

T5: LNX2_3, Q8N448
T5 sequence (Q8N448 463-564, limits assumed, looked up): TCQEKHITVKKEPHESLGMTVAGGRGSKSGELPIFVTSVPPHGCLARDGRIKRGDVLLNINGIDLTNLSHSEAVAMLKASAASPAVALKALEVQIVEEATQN

T6: MPP6, Q9NZW5
T6 sequence (Q9NZW5 125-219, limits assumed, looked up): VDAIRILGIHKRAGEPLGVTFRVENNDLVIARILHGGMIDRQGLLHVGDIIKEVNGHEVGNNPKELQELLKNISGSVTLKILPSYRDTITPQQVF

T7: MPP2, Q14168
T7 sequence (Q14168 180-250, limits assumed, looked up): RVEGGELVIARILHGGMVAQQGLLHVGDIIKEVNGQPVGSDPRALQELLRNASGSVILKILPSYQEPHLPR

T8: DLG3_3, Q92796
T8 sequence (Q92796 374-475, limits assumed, looked up): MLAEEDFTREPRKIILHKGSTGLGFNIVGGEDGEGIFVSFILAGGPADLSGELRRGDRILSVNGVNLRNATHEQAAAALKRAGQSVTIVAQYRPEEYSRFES

T9: GRIP1_7, Q9Y3R0
T9 sequence (Q9Y3R0 999-1096, limits assumed, looked up): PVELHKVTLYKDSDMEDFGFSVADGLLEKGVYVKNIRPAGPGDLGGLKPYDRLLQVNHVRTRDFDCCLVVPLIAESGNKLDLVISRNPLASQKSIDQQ

T10: GRIP1_2, Q9Y3R0
T10 sequence (Q9Y3R0 145-248, limits assumed, looked up): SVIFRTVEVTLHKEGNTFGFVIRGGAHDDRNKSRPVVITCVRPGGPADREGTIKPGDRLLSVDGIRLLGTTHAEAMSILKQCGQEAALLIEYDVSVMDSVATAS

T11: GRIP1_3, Q9Y3R0
T11 sequence (Q9Y3R0 247-346, limits assumed, looked up): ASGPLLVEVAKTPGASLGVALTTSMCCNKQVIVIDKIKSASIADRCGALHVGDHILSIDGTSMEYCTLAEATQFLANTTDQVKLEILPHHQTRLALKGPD

T12: APBA2_2, Q99767
T12 sequence (Q99767 654-744, limits assumed, looked up): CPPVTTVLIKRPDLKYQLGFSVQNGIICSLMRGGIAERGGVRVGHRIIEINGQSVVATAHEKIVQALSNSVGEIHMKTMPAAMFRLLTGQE

T13: DFNB31_1, Q9P202
T13 sequence (Q9P202 135-233, limits assumed, looked up): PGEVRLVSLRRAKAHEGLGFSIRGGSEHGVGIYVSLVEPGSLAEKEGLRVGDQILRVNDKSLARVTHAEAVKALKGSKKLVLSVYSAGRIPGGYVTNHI

B1: HBV-HBc, P03193 (peptide)
chain: RRRRSQSRESQC

target: CASK, O14936; experiment: holdup assay; parameters: key: below the threshold = too weak to quantify, mostly under pKd 3.1 to 4; settings: plain residues with an end cap or a label only (N-terminal biotin on a linker: (peg)3)
Sequence (O14936 487-570): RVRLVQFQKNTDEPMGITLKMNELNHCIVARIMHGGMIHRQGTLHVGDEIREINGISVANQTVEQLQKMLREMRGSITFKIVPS

Row | Binder | pKd
1 | B1 | below the threshold

target: T1, ARHGEF11, O15085; experiment: holdup assay; parameters: key: below the threshold = too weak to quantify, mostly under pKd 3.1 to 4; settings: plain residues with an end cap or a label only (N-terminal biotin on a linker: (peg)3)

Row | Binder | pKd
2 | B1 | below the threshold

target: T2, APBA2_1, Q99767; experiment: holdup assay; parameters: key: below the threshold = too weak to quantify, mostly under pKd 3.1 to 4; settings: plain residues with an end cap or a label only (N-terminal biotin on a linker: (peg)3)

Row | Binder | pKd
3 | B1 | below the threshold

target: NOS1, P29475; experiment: holdup assay; parameters: key: below the threshold = too weak to quantify, mostly under pKd 3.1 to 4; settings: plain residues with an end cap or a label only (N-terminal biotin on a linker: (peg)3)
Sequence (P29475 9-101): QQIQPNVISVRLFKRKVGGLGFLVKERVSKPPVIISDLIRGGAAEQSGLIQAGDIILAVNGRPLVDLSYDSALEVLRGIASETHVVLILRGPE

Row | Binder | pKd
4 | B1 | below the threshold

target: T3, NHERF3_4, Q5T2W1; experiment: holdup assay; parameters: key: below the threshold = too weak to quantify, mostly under pKd 3.1 to 4; settings: plain residues with an end cap or a label only (N-terminal biotin on a linker: (peg)3)

Row | Binder | pKd
5 | B1 | below the threshold

target: GORASP2, Q9H8Y8; experiment: holdup assay; parameters: key: below the threshold = too weak to quantify, mostly under pKd 3.1 to 4; settings: plain residues with an end cap or a label only (N-terminal biotin on a linker: (peg)3)

Row | Binder | pKd
6 | B1 | below the threshold

target: DLG4_1, P78352; experiment: holdup assay; parameters: key: below the threshold = too weak to quantify, mostly under pKd 3.1 to 4; settings: plain residues with an end cap or a label only (N-terminal biotin on a linker: (peg)3)
Sequence (P78352 62-152): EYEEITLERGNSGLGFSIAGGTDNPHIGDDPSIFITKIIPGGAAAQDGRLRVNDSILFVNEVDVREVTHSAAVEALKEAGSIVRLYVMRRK

Row | Binder | pKd
7 | B1 | 4.31

target: LNX1_3, Q8TBB1; experiment: holdup assay; parameters: key: below the threshold = too weak to quantify, mostly under pKd 3.1 to 4; settings: plain residues with an end cap or a label only (N-terminal biotin on a linker: (peg)3)
Sequence (Q8TBB1 500-596): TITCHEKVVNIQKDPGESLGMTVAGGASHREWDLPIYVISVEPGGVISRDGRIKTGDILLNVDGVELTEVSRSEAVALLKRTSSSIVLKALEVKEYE

Row | Binder | pKd
8 | B1 | below the threshold

target: T4, SNTB1, Q13884; experiment: holdup assay; parameters: key: below the threshold = too weak to quantify, mostly under pKd 3.1 to 4; settings: plain residues with an end cap or a label only (N-terminal biotin on a linker: (peg)3)

Row | Binder | pKd
9 | B1 | 4.78

target: T5, LNX2_3, Q8N448; experiment: holdup assay; parameters: key: below the threshold = too weak to quantify, mostly under pKd 3.1 to 4; settings: plain residues with an end cap or a label only (N-terminal biotin on a linker: (peg)3)

Row | Binder | pKd
10 | B1 | below the threshold

target: TJP1_3, Q07157; experiment: holdup assay; parameters: key: below the threshold = too weak to quantify, mostly under pKd 3.1 to 4; settings: plain residues with an end cap or a label only (N-terminal biotin on a linker: (peg)3)
Sequence (Q07157 416-512): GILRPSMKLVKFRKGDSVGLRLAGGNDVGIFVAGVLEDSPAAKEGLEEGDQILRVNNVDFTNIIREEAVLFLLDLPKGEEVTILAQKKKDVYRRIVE

Row | Binder | pKd
11 | B1 | below the threshold

target: T6, MPP6, Q9NZW5; experiment: holdup assay; parameters: key: below the threshold = too weak to quantify, mostly under pKd 3.1 to 4; settings: plain residues with an end cap or a label only (N-terminal biotin on a linker: (peg)3)

Row | Binder | pKd
12 | B1 | below the threshold

target: T7, MPP2, Q14168; experiment: holdup assay; parameters: key: below the threshold = too weak to quantify, mostly under pKd 3.1 to 4; settings: plain residues with an end cap or a label only (N-terminal biotin on a linker: (peg)3)

Row | Binder | pKd
13 | B1 | below the threshold

target: T8, DLG3_3, Q92796; experiment: holdup assay; parameters: key: below the threshold = too weak to quantify, mostly under pKd 3.1 to 4; settings: plain residues with an end cap or a label only (N-terminal biotin on a linker: (peg)3)

Row | Binder | pKd
14 | B1 | 3.69

target: MAST2, Q6P0Q8; experiment: holdup assay; parameters: key: below the threshold = too weak to quantify, mostly under pKd 3.1 to 4; settings: plain residues with an end cap or a label only (N-terminal biotin on a linker: (peg)3)
Sequence (Q6P0Q8 1099-1202): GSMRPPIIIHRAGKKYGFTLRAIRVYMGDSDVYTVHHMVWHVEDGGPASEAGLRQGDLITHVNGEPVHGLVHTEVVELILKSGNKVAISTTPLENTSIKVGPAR

Row | Binder | pKd
15 | B1 | 4.26

target: T9, GRIP1_7, Q9Y3R0; experiment: holdup assay; parameters: key: below the threshold = too weak to quantify, mostly under pKd 3.1 to 4; settings: plain residues with an end cap or a label only (N-terminal biotin on a linker: (peg)3)

Row | Binder | pKd
16 | B1 | below the threshold

target: T10, GRIP1_2, Q9Y3R0; experiment: holdup assay; parameters: key: below the threshold = too weak to quantify, mostly under pKd 3.1 to 4; settings: plain residues with an end cap or a label only (N-terminal biotin on a linker: (peg)3)

Row | Binder | pKd
17 | B1 | below the threshold

target: T11, GRIP1_3, Q9Y3R0; experiment: holdup assay; parameters: key: below the threshold = too weak to quantify, mostly under pKd 3.1 to 4; settings: plain residues with an end cap or a label only (N-terminal biotin on a linker: (peg)3)

Row | Binder | pKd
18 | B1 | below the threshold

target: GRID2IP_1, A4D2P6; experiment: holdup assay; parameters: key: below the threshold = too weak to quantify, mostly under pKd 3.1 to 4; settings: plain residues with an end cap or a label only (N-terminal biotin on a linker: (peg)3)
Sequence (A4D2P6 1-87): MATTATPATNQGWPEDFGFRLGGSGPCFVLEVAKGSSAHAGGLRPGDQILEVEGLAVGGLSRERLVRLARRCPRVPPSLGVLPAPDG

Row | Binder | pKd
19 | B1 | below the threshold

target: GIPC2, Q8TF65; experiment: holdup assay; parameters: key: below the threshold = too weak to quantify, mostly under pKd 3.1 to 4; settings: plain residues with an end cap or a label only (N-terminal biotin on a linker: (peg)3)
Sequence (Q8TF65 112-203): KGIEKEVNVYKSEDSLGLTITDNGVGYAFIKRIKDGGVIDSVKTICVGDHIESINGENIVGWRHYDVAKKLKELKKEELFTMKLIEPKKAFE

Row | Binder | pKd
20 | B1 | 4.39

target: T12, APBA2_2, Q99767; experiment: holdup assay; parameters: key: below the threshold = too weak to quantify, mostly under pKd 3.1 to 4; settings: plain residues with an end cap or a label only (N-terminal biotin on a linker: (peg)3)

Row | Binder | pKd
21 | B1 | below the threshold

target: T13, DFNB31_1, Q9P202; experiment: holdup assay; parameters: key: below the threshold = too weak to quantify, mostly under pKd 3.1 to 4; settings: plain residues with an end cap or a label only (N-terminal biotin on a linker: (peg)3)

Row | Binder | pKd
22 | B1 | 3.92

target: DLG1_3, Q12959; experiment: holdup assay; parameters: key: below the threshold = too weak to quantify, mostly under pKd 3.1 to 4; settings: plain residues with an end cap or a label only (N-terminal biotin on a linker: (peg)3)
Sequence (Q12959 457-571): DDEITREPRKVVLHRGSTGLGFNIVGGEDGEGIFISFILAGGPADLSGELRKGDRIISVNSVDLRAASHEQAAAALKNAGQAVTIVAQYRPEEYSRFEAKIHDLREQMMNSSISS

Row | Binder | pKd
23 | B1 | 3.98

target: IL16_4, Q14005; experiment: holdup assay; parameters: key: below the threshold = too weak to quantify, mostly under pKd 3.1 to 4; settings: plain residues with an end cap or a label only (N-terminal biotin on a linker: (peg)3)
Sequence (Q14005 1229-1329): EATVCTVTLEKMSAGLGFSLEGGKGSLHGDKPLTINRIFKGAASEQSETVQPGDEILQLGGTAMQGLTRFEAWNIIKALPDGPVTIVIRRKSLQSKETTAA

Row | Binder | pKd
24 | B1 | 3.68
